Assay results as given in paper PMC9352680, “A comprehensive thermodynamic model for RNA binding by the Saccharomyces cerevisiae Pumilio protein PUF4”.
Changes are numbered by the printed parent chain. Names may count otherwise.

Biological target: T1, PUF4 RNA-binding domain (Saccharomyces cerevisiae, UniProt P25339 537-888)
T1 sequence: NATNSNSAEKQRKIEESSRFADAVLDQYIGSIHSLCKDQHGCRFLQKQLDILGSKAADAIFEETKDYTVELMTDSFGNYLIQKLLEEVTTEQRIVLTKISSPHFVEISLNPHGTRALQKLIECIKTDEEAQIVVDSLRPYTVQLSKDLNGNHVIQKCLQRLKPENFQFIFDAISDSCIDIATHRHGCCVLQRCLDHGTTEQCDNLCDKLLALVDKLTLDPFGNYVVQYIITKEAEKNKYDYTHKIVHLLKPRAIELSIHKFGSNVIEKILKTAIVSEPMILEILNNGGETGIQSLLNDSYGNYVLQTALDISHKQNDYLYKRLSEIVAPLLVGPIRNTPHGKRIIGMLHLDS
Assay: Mg; RNA-MaP; 20 mM Na-HEPES pH 7.4, 30 mM KOAc, 0.75 mM MgCl2, 0.1% Tween-20, 5% glycerol, 0.1 mg/mL BSA, 2 mM DTT; 25 C; 0.0125-409.6 nM protein
Conditions: tags: N-His6-TEV cleaved; C-SNAP kept, Cy3B-labelled; label: tethered on chip by stalled RNA polymerase

B1: Id_ii_S2_P3E.4_K3.3_C3.2_[T-1A]_H3.3_A3.1_F3.1_T3.2_[A10T] (ssRNA)
RNA: UUUGAUUAAUAUGAUAUCGUUCUUUCUCAACACUAUAUUUUCUUUCUCGAUAUCAUAUUAAUCUUU
  Kd: 1.13 µM

B2: Id_ii_S2_P3E.4_K3.3_C3.2_[C-2T]_[T-1C]_H3.3_A3.1_F3.1_T3.2_[T9A]_[A10G] (ssRNA)
RNA: B1 RNA with C28U, A29C, U38A, U39G
  Kd: > 2.3 µM

B3: Id_ii_S2_P3E.4_K3.3_C3.2_[C-2T]_H3.3_A3.1_F3.1_T3.2_[T9C]_[A10T] (ssRNA)
RNA: B1 RNA with C28U, A29U, U38C
  Kd: 0.67 µM

B4: Id_ii_S2_P3E.4_K3.3_C3.2_[C-2A]_[T-1A]_H3.3_A3.1_F3.1_T3.2_[T9A]_[A10T] (ssRNA)
RNA: B1 RNA with C28A, U38A
  Kd: > 2.3 µM

B5: Id_ii_S2_P3E.4_K3.3_C3.2_[C-2A]_H3.3_A3.1_F3.1_T3.2_[A10C] (ssRNA)
RNA: B1 RNA with C28A, A29U, U39C
  Kd: 0.0118 µM

B6: Id_ii_S2_P3E.4_K3.3_C3.2_[C-2A]_H3.3_A3.1_F3.1_T3.2_[T9C]_[A10G] (ssRNA)
RNA: B1 RNA with C28A, A29U, U38C, U39G
  Kd: 0.116 µM

B7: Id_ii_S2_P3E.4_K3.3_C3.2_[C-2T]_[T-1A]_H3.3_A3.1_F3.1_T3.2_[T9A]_[A10T] (ssRNA)
RNA: B1 RNA with C28U, U38A
  Kd: 2.15 µM

B8: Id_ii_S2_P3E.4_K3.3_C3.2_H3.3_A3.1_F3.1_T3.2_[T9G]_[A10C] (ssRNA)
RNA: B1 RNA with A29U, U38G, U39C
  Kd: 1.6 µM

B9: Id_ii_S2_P3E.4_K3.3_C3.2_H3.3_A3.1_F3.1_T3.2_[T9A] (ssRNA)
RNA: B1 RNA with A29U, U38A, U39A
  Kd: 0.454 µM

B10: Id_ii_S2_P3E.4_K3.3_C3.2_[C-2A]_H3.3_A3.1_F3.1_T3.2_[T9A]_[A10G] (ssRNA)
RNA: B1 RNA with C28A, A29U, U38A, U39G
  Kd: 0.174 µM

B11: Id_ii_S2_P3E.4_K3.3_C3.2_[C-2T]_[T-1C]_H3.3_A3.1_F3.1_T3.2_[A10C] (ssRNA)
RNA: B1 RNA with C28U, A29C, U39C
  Kd: 1.26 µM

B12: Id_ii_S2_P3E.4_K3.3_C3.2_[C-2T]_[T-1A]_H3.3_A3.1_F3.1_T3.2_[T9C]_[A10T] (ssRNA)
RNA: B1 RNA with C28U, U38C
  Kd: 1.86 µM

B13: Id_ii_S2_P3E.4_K3.3_C3.2_[C-2A]_[T-1A]_H3.3_A3.1_F3.1_T3.2_[T9A] (ssRNA)
RNA: B1 RNA with C28A, U38A, U39A
  Kd: 2.02 µM

B14: Id_ii_S2_P3E.4_K3.3_C3.2_[C-2T]_[T-1C]_H3.3_A3.1_F3.1_T3.2_[A10T] (ssRNA)
RNA: B1 RNA with C28U, A29C
  Kd: 0.94 µM

B15: Id_ii_S2_P3E.4_K3.3_C3.2_[C-2A]_[T-1A]_H3.3_A3.1_F3.1_T3.2_[T9C]_[A10G] (ssRNA)
RNA: B1 RNA with C28A, U38C, U39G
  Kd: > 2.3 µM

B16: Id_ii_S2_P3E.4_K3.3_C3.2_[C-2A]_H3.3_A3.1_F3.1_T3.2_[T9C] (ssRNA)
RNA: B1 RNA with C28A, A29U, U38C, U39A
  Kd: 0.0217 µM

B17: Id_ii_S2_P3E.4_K3.3_C3.2_H3.3_A3.1_F3.1_T3.2_[T9A]_[A10T] (ssRNA)
RNA: B1 RNA with A29U, U38A
  Kd: 0.776 µM

B18: Id_ii_S2_P3E.4_K3.3_C3.2_[C-2T]_H3.3_A3.1_F3.1_T3.2_[T9G]_[A10C] (ssRNA)
RNA: B1 RNA with C28U, A29U, U38G, U39C
  Kd: 0.898 µM

B19: Id_ii_S2_P3E.4_K3.3_C3.2_[C-2A]_H3.3_A3.1_F3.1_T3.2_[T9A]_[A10T] (ssRNA)
RNA: B1 RNA with C28A, A29U, U38A
  Kd: 0.0322 µM

B20: Id_ii_S2_P3E.4_K3.3_C3.2_[C-2A]_[T-1C]_H3.3_A3.1_F3.1_T3.2_[T9A] (ssRNA)
RNA: B1 RNA with C28A, A29C, U38A, U39A
  Kd: 1.07 µM

B21: Id_ii_S2_P3E.4_K3.3_C3.2_[C-2A]_H3.3_A3.1_F3.1_T3.2_[T9A] (ssRNA)
RNA: B1 RNA with C28A, A29U, U38A, U39A
  Kd: 0.0273 µM

B22: Id_ii_S2_P3E.4_K3.3_C3.2_[T-1A]_H3.3_A3.1_F3.1_T3.2_[T9G]_[A10C] (ssRNA)
RNA: B1 RNA with U38G, U39C
  Kd: > 2.3 µM

B23: Id_ii_S2_P3E.4_K3.3_C3.2_[T-1C]_H3.3_A3.1_F3.1_T3.2_[T9C]_[A10T] (ssRNA)
RNA: B1 RNA with A29C, U38C
  Kd: 1.08 µM

B24: Id_ii_S2_P3E.4_K3.3_C3.2_[C-2T]_[T-1C]_H3.3_A3.1_F3.1_T3.2_[T9C] (ssRNA)
RNA: B1 RNA with C28U, A29C, U38C, U39A
  Kd: 0.417 µM

B25: Id_ii_S2_P3E.4_K3.3_C3.2_[C-2A]_[T-1C]_H3.3_A3.1_F3.1_T3.2_[T9C]_[A10T] (ssRNA)
RNA: B1 RNA with C28A, A29C, U38C
  Kd: 1.81 µM

B26: Id_ii_S2_P3E.4_K3.3_C3.2_[T-1A]_H3.3_A3.1_F3.1_T3.2_[T9C]_[A10T] (ssRNA)
RNA: B1 RNA with U38C
  Kd: > 2.3 µM

B27: Id_ii_S2_P3E.4_K3.3_C3.2_[C-2T]_H3.3_A3.1_F3.1_T3.2_[A10C] (ssRNA)
RNA: B1 RNA with C28U, A29U, U39C
  Kd: 0.475 µM

B28: Id_ii_S2_P3E.4_K3.3_C3.2_[T-1A]_H3.3_A3.1_F3.1_T3.2_[T9C]_[A10G] (ssRNA)
RNA: B1 RNA with U38C, U39G
  Kd: > 2.3 µM

B29: Id_ii_S2_P3E.4_K3.3_C3.2_H3.3_A3.1_F3.1_T3.2_[A10T] (ssRNA)
RNA: B1 RNA with A29U
  Kd: 0.399 µM
